T1: 6xHisLip-VIN3VEL RR>AD (ITC) (Arabidopsis thaliana, UniProt Q9FIE3 529-603, R554A | R556D)
T1 construct: VEL domain of VIN3, Arabidopsis thaliana, Q9FIE3, R554A R556D; residues 529-603 by the methods' rule for pLipK-VIN3VEL ('unless specified otherwise'); also called VIN3VEL head mutant; source: E. coli BL21(DE3) pRARE2, purified (Ni-NTA, SEC); not shown: 6xHis, N-terminal, kept; lipoyl (Lip) solubility tag, N-terminal, kept
T1 sequence (looked up): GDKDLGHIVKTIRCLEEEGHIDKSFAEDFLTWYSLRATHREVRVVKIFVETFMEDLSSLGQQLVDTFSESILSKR

B1: VIN3VEL RR>AD (R554A R556D), residues 529–603, untagged (domain or fragment, Arabidopsis thaliana, UniProt Q9FIE3 529-603, looked up)
chain: GDKDLGHIVKTIRCLEEEGHIDKSFAEDFLTWYSLRATHREVRVVKIFVETFMEDLSSLGQQLVDTFSESILSKR
modifications: selenomethionine (labelling for phasing, crystals); 13C-15N double-labeled (NMR)
notes: VEL domain of VIN3, Arabidopsis thaliana, Q9FIE3, residues 529-603, R554A R556D; Used for the crystal structure 7O6U and, as 'untagged RR>AD', for NMR; also called VIN3 R554A R556D; VIN3VEL head mutant; source: E. coli BL21(DE3) pRARE2, purified (Ni-NTA, TEV cleavage, SEC); not shown: 6xHis, N-terminal, cleaved

Assays:
[1] = target: the molecule itself; experiment: crystal structure; untagged VEL domains bearing polymerization-deficient point mutations, 4–25 mg/mL, sitting-drop vapor diffusion at 18°C; SAD with selenomethionine
[2] = target: the molecule itself; experiment: SEC-MALS; Superdex200 10/300 GL in PBS with 1 mM DTT; increasing protein concentrations (2 mg/mL unless stated otherwise); self-association
[3] = target: T1, 6xHisLip-VIN3VEL RR>AD (ITC); experiment: ITC; 25°C; 1 mM 6xHisLip-VIN3VEL I575D injected into 100 μM 6xHisLip-VIN3VEL RR>AD; 25 mM Tris pH 7.4, 200 mM NaCl, 0.5 mM DTT, 0.06% NaN3; head-to-tail interface between a head mutant and a tail mutant; settings: both partners purified
[4] = target: B1; experiment: NMR titration; 300 μM 13C-15N VEL RR>AD with 100 μM unlabeled VEL I575D; peak heights in 1H-15N fast-HSQC spectra; 25 mM phosphate pH 6.7, 150 mM NaCl, 283 K; settings: both partners purified

Binder | binding result [1] | stoichiometry N [2] | further results
VEL1VEL I664D, residues 616–692, untagged (domain or fragment, Arabidopsis thaliana, UniProt Q9SUM4 616-692, looked up, selenomethionine (labelling for phasing), VEL domain of VEL1, Arabidopsis thaliana, Q9SUM4, residues 616-692, I664D; also called VEL1 I664D; source: E. coli BL21(DE3) pRARE2, purified (Ni-NTA, TEV cleavage, SEC); not shown: 6xHis, N-terminal, cleaved) GGTESGLEHCVKIIRQLECSGHIDKNFRQKFLTWYSLRATSQEIRVVKDFIDTFIDDPMALAEQLIDTFDDRVSIKR | binds |  | 
Lip-VIN3VEL (residues 500–603), wild type (domain or fragment, Arabidopsis thaliana, UniProt Q9FIE3 500-603, looked up, VEL domain of VIN3, Arabidopsis thaliana, Q9FIE3, residues 500-603; also called WT domain; source: E. coli BL21(DE3) pRARE2, purified (Ni-NTA, SEC); not shown: lipoyl (Lip) solubility tag, N-terminal, kept) GKQGGNKRFKSRTVSLNEKPEINNAANGVGDKDLGHIVKTIRCLEEEGHIDKSFRERFLTWYSLRATHREVRVVKIFVETFMEDLSSLGQQLVDTFSESILSKR |  | ~9 -mer | 
Lip-VEL1VEL (residues 589–692), wild type (domain or fragment, Arabidopsis thaliana, UniProt Q9SUM4 589-692, looked up, VEL domain of VEL1, Arabidopsis thaliana, Q9SUM4, residues 589-692; source: E. coli BL21(DE3) pRARE2, purified (Ni-NTA, SEC); not shown: lipoyl (Lip) solubility tag, N-terminal, kept) SDEIKNRQARIEISMKDNCNNGDHSANGGTESGLEHCVKIIRQLECSGHIDKNFRQKFLTWYSLRATSQEIRVVKIFIDTFIDDPMALAEQLIDTFDDRVSIKR |  | > 20 -mer | 
6xHisLip-VIN3VEL I575D (ITC) (domain or fragment, Arabidopsis thaliana, UniProt Q9FIE3 529-603, looked up, VEL domain of VIN3, Arabidopsis thaliana, Q9FIE3, I575D; residues 529-603 by the methods' rule for pLipK-VIN3VEL ('unless specified otherwise'); also called VIN3VEL tail mutant; source: E. coli BL21(DE3) pRARE2, purified (Ni-NTA, SEC); not shown: 6xHis, N-terminal, kept; lipoyl (Lip) solubility tag, N-terminal, kept) GDKDLGHIVKTIRCLEEEGHIDKSFRERFLTWYSLRATHREVRVVKDFVETFMEDLSSLGQQLVDTFSESILSKR |  |  | Kd [3]: 1.16 µM
VIN3VEL I575D, untagged (domain or fragment, Arabidopsis thaliana, UniProt Q9FIE3 529-603, looked up, selenomethionine (labelling for phasing, crystals), VEL domain of VIN3, Arabidopsis thaliana, Q9FIE3, I575D; also called VIN3 I575D; VIN3VEL tail mutant; source: E. coli BL21(DE3) pRARE2, purified (Ni-NTA, TEV cleavage, SEC); not shown: 6xHis, N-terminal, cleaved) GDKDLGHIVKTIRCLEEEGHIDKSFRERFLTWYSLRATHREVRVVKDFVETFMEDLSSLGQQLVDTFSESILSKR | binds |  | binding result [4]: binds
B1 | binds |  | 
